Measurements taken from patent US20260348974 (published 2026).

B1: E104.v1 6DS (LC.F116C.Q124C.HC.F126C.A141C) (antibody, V domains shown)
VH: EVQLVESGPGCVKPSETLSLTCTVSRFSLIGYAITWIRQPPGKGLEWIGGISSAATTFYSSWAKSRVTISVDTSKNQFSLKLSSVTAADTAVYYCARDPRGYGAALDRLDLWGQGTCVTVSS
VL: DIQMTQSPSSLSASVGDRVTITCQSIKSVYNNRLGWYQQKCGKAPKLLIYETSILTSGVPSRFSGSGSGTDFTLTISSLQCEDFATYYCAGGFDRSGDTTFGQGTKVEIKR
B2: E104.v1 4DS (antibody, V domains shown)
VH: B1 VH
VL: B1 VL

Target: human beta-tryptase (human, UniProt Q15661)
Test: BLI steady state

Chain of human beta-tryptase (Q15661 31-275): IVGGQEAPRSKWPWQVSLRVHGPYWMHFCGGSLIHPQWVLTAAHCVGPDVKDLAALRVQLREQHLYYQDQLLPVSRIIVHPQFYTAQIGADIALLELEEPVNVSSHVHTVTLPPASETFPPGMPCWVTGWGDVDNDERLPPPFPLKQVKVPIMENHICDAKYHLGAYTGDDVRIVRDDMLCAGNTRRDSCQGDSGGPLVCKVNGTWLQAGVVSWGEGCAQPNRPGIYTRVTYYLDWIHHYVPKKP

Binder | Kd [nM]
B1 | 3.16
B2 | 1.63
